Test results reported in patent US20250011363A1, “OPTIMIZED SHORTENED PEPTIDE THAT BINDS TO ACETYLCHOLINE RECEPTOR, AND USE THEREOF” (SKINMED CO., LTD., priority 2021, published 2025).

Experiments:
[1] = biological target: acetylcholine receptor on acetylcholine receptor-overexpressing TE671 cells; experiment: cell-based or functional assay
acetylcholine receptor = experiment: SPR, AchR immobilized on chip

## Synake (peptide)
[1]
  inhibition of acetylcholine receptors (calcium imaging with Fura-2-AM, TE671 cells, nicotine 400 uM): 500 µM
Acetylcholine receptor
  Binding affinity (RU): 14 RU
